Measured values taken from publication PMC11751051 (Frontiers in Molecular Biosciences, 2025).

Key:
GFP-OhyA = target: T1, GFP-OhyA (Staphylococcus aureus, UniProt Q2G1P3, M1A); test: biochemical
T1 construct: gene SAOUHSC_00061

[1] = target: GFP-OhyA (green fluorescent protein-oleate hydratase chimeric protein) (Staphylococcus aureus); test: SEC-MALS; Superose 6 Increase 10/300 GL; 20 mM Tris, 200 mM NaCl, pH 7.6; 100 uL of GFP-OhyA (2 mg/mL) injected at 0.5 mL/min, 25 °C

| Molecule | Kd (GFP-OhyA) [nM] | percent dimer [1] [%] | stoichiometry N [1] |
| --- | --- | --- | --- |
| CCCCCCCC/C=C\CCCCCCCC(=O)OC[C@H](COP(=O)(O)OCC(O)CO)OC(=O)CCCCCCC/C=C\CCCCCCCC (stereo partly drawn) [DOPG] | 79.9 | – | – |
| GFP-OhyA (green fluorescent protein-oleate hydratase chimeric protein) (enzyme) | – | 80.6 | 2 |
